From patent US9320770B2, “Blood vessel maturation, normalization or stabilization agent and wrinkle preventer/improver” (Shiseido Company, Ltd., priority 2008, dated 2016)
Each block holds one molecule with its values, some of them ahead of it.

Key:
Type in all cases: cell-based
[1] = test system: Normal human umbilical vein endothelial cells and normal human dermal fibroblasts; assay: Evaluation of angiogenesis inhibitory action (angiogenesis kit, lumen formation in the presence of VEGF-A)
Experimental: Evaluation of Angiogenesis Inhibitory Action
A test was conducted for confirming the angiogenesis inhibitory action of cinnamon bark hot water extract.
Normal human umbilical vein endothelial cells and normal human dermal fibroblasts were co-cultured at a constant ratio using an angiogenesis kit (Kurabo Industries) and prepared in the growth state of the initial stage of lumen formation. The cells were incubated (under conditions of 37° C. and 5% CO2) after adding medium containing a prescribed concentration of cinnamon bark hot water extract in the presence of 10 ng/ml of vascular endothelial cell growth factor A (VEGF-A, Kurabo Industries). […] The stained images obtained from each well were then photographed (FIG. 4), and the images were analyzed using the length and surface area of lumen formation as indicators to evaluate angiogenesis inhibitory action (FIGS. 5 and 6). Image analysis for the length of lumen formation and image analysis for surface area were respectively carried out using angiogenesis quantification software (Kurabo Industries). […] Moreover, angiogenesis inhibitory action in the presence of VGF-A was also evaluated for Ang-1, which is known to have an action that is responsible for vascular stabilization.

full-length murine TIE2 = molecular target: T1, full-length murine TIE2 (Mus musculus, UniProt Q02858); assay: Tie-2 phosphorylation evaluation in Baf3 cells (BaF/TIE2), Western blotting; settings: extracts 100 ppm, Angiopoietin-1 0.5 ppm, 10 minutes, FIG. 1 and 2
T1 construct: Ba/F3 transduced with full-length murine TIE2(BaF/TIE2); expressed in transfected cells; host or cells: Ba/F3 (murine pro-B cell line)
T1 sequence (Q02858 23-1122): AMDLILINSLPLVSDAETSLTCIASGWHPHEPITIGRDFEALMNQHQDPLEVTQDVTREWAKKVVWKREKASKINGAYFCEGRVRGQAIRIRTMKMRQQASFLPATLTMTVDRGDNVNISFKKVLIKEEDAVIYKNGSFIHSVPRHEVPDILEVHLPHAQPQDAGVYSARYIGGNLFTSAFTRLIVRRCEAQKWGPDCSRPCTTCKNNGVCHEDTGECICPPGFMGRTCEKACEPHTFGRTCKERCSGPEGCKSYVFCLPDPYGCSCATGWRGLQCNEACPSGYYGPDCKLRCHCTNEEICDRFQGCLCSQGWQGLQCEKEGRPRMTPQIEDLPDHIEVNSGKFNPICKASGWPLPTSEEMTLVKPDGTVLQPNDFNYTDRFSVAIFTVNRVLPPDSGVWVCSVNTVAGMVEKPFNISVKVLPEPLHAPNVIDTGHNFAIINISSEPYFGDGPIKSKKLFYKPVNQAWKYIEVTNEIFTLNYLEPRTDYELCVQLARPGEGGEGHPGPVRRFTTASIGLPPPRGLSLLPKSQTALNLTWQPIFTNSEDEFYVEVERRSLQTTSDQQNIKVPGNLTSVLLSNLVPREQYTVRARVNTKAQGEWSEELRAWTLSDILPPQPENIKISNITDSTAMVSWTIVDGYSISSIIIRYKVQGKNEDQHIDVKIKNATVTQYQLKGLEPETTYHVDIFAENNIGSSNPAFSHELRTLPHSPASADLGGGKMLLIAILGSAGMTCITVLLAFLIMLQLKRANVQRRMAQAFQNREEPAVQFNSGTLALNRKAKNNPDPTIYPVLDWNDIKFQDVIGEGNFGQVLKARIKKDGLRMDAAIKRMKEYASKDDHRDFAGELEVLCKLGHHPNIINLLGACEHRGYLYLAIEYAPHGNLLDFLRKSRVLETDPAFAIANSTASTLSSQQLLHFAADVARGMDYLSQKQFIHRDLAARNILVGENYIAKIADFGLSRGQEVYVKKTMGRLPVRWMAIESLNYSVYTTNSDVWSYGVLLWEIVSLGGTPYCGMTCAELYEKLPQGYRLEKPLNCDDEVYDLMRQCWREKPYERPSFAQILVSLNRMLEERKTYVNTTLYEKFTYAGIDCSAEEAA
Experimental: Tie-2 Phosphorylation Evaluation Method
(§1) Baf3 cells, a murine pro-B cell line, Ba/F3 transduced with full-length murine TIE2(BaF/TIE2) were incubated in RPMI 1640 medium in the presence of IL-3 (Biosource, PMC0034) and 10% FCS. The cells were plated into a 6-well plate at 2×10^6 cells/1.5 mL/well and incubated overnight while omitting the FCS starting on the day before cell stimulation. DMSO solutions of the aforementioned hot water extract dry residues, Angiopoietin-1 (R&D System, 932-AN) as a positive control or DMSO as a negative control were added to the wells at a final concentration of 100 ppm, 0.5 ppm and 1000 ppm, respectively, followed by incubating for 10 minutes, cooling the cells on ice and washing with chilled PBS. The cells were then ultrasonically homogenized in RIPA buffer containing protease inhibitors (leupeptin, aprotinin, pepstatin, PMSF, Na3VO4). Sample buffer (0.2 M Tris-HCl (pH 6.8), 4% SDS, 20% glycerol, 5 mM EDTA, 0.01% BPB) was then added followed by carrying out SDS-PAGE (7.5% polyacrylamide gel, 12 wells, NPU-7.5L, Atto Corp.) under the conditions indicated below.
Gel: 7.5% acrylamide gel (NPU-7.5L, Atto Corp.)
Phoresis conditions: 40 mA (75 minutes, 2 gel sheets) […]
(§2) Next, Western blotting (20 V, 4° C., overnight) was carried out for transcription to a PVDF membrane. […] Protein bands were detected by chemiluminescence detection (ECL).

Tie-2 = molecular target: T2, Tie-2 (Homo sapiens, UniProt Q02763); assay: Tie-2 phosphorylation evaluation in HUVEC; settings: evaluated in the same manner as Baf3 cells, FIG. 3
T2 construct: Tie-2 phosphorylation was similarly evaluated using normal human umbilical vein endothelial cells (HUVEC); endogenous in cells; host or cells: HUVEC (normal human umbilical vein endothelial cells)
T2 sequence (Q02763 23-1124): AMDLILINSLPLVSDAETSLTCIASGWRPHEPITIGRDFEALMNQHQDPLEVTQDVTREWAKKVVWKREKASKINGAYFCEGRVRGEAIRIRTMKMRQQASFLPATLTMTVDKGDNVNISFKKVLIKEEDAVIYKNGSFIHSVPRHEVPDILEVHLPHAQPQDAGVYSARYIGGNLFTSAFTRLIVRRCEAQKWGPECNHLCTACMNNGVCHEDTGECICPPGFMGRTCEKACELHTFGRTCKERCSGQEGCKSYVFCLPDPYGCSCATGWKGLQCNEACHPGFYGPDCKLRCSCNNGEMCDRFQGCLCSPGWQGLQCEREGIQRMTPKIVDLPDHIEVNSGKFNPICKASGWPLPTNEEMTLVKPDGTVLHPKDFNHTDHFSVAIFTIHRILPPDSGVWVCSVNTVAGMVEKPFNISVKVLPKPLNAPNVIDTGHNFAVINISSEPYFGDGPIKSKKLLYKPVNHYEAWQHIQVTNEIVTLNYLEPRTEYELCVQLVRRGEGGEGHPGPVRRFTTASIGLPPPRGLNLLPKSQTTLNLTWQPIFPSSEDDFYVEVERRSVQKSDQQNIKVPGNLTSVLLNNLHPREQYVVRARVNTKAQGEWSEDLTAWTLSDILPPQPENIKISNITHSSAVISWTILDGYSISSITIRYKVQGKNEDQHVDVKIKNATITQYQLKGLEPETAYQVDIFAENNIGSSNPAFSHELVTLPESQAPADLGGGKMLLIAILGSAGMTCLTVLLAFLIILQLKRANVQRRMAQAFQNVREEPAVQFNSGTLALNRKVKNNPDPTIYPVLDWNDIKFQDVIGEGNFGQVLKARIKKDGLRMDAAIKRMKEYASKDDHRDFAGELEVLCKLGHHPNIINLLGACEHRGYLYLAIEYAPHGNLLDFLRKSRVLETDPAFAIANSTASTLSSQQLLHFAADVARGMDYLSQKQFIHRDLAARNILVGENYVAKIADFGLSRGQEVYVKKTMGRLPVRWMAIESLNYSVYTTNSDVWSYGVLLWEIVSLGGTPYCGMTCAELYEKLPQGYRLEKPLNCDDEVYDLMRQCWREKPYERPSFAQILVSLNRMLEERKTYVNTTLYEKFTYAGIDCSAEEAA
Experimental: as §1, §2
2) Tie-2 phosphorylation was similarly evaluated using normal human umbilical vein endothelial cells (HUVEC). […]

Molecule: Cc1ccc(C(=O)Nc2ccc(S(=O)(=O)O)c3cc(S(=O)(=O)O)cc(S(=O)(=O)O)c23)cc1NC(=O)c1cccc(NC(=O)Nc2cccc(C(=O)Nc3cc(C(=O)Nc4ccc(S(=O)(=O)O)c5cc(S(=O)(=O)O)cc(S(=O)(=O)O)c45)ccc3C)c2)c1 [Suramin, reference compound]
- lumen formation (stained image) ([1]; cultured with VEGF-A 10 ng/ml, FIG. 4, cinnamon bark extract particularly at 300 ppm): lumen formation was determined to be inhibited

- Tie-2 phosphorylation (full-length murine TIE2): phosphorylation of Tie-2
- Tie-2 phosphorylation (Tie-2): phosphorylation of Tie-2
B1: Ang-1: Angiopoietin-1 (R&D System, 932-AN), positive control known to activate Tie-2 (protein, UniProt Q15389 16-498, looked up)
Angiopoietin-1: HIGCSNQRRSPENSGRRYNRIQHGQCAYTFILPEHDGNCRESTTDQYNTNALQRDAPHVEPDFSSQKLQHLEHVMENYTQWLQKLENYIVENMKSEMAQIQQNAVQNHTATMLEIGTSLLSQTAEQTRKLTDVETQVLNQTSRLEIQLLENSLSTYKLEKQLLQQTNEILKIHEKNSLLEHKILEMEGKHKEELDTLKEEKENLQGLVTRQTYIIQELEKQLNRATTNNSVLQKQQLELMDTVHNLVNLCTKEGVLLKGGKREEEKPFRDCADVYQAGFNKSGIYTIYINNMPEPKKVFCNMDVNGGGWTVIQHREDGSLDFQRGWKEYKMGFGNPSGEYWLGNEFIFAITSQRQYMLRIELMDWEGNRAYSQYDRFHIGNEKQNYRLYLKGHTGTAGKQSSLILHGADFSTKDADNDNCMCKCALMLTGGWWFDACGPSNLNGMFYTAGQNHGKLNGIKWHYFKGPSYSLRSTTMMIRPLDF
- angiogenesis inhibitory action (length and surface area of lumen formation) ([1]; angiogenesis induced by VEGF-A 10 ng/ml, FIGS. 5 and 6, cinnamon bark extract 10 to 300 ppm): did not have angiogenesis inhibitory action
